Data from patent US20250282868A1 (ITEOS BELGIUM, published 2025).

T1: cynomolgus TREM2 (cynomolgus, UniProt A0A2K5UY34 49-260)
T1 construct: also called cynoTREM2; cTREM2
T1 sequence: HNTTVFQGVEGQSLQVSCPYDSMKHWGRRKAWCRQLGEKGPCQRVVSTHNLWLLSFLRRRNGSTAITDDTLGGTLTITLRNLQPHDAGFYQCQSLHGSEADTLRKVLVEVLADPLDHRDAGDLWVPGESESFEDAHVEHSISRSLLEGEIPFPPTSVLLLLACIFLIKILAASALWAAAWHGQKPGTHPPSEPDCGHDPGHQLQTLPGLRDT

T2: human TREM2 (human, UniProt Q9NZC2 19-230)
T2 construct: on THP-1 WT cells and M2a-like macrophages (endogenous) and on CHO or HEK293T cells overexpressing human TREM2 with DAP12; also called hTREM2
T2 sequence: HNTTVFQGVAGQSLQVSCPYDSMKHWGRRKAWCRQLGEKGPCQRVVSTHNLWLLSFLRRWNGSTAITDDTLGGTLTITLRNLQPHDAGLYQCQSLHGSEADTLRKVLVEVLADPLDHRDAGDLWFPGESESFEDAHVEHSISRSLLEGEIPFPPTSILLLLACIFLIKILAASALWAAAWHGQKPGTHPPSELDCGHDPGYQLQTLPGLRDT

T3: mouse TREM2 (mouse, UniProt Q99NH8 19-227)
T3 construct: whole, on cells
T3 sequence (looked up): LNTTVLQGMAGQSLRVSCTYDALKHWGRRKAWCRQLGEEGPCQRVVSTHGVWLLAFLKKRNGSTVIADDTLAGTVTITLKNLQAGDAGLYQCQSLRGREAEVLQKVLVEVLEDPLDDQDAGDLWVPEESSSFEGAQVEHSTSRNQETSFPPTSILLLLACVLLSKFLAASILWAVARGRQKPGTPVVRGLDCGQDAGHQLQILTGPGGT

B1: EOS006175 (antibody, V domains shown)
VH: QVQLQESGPGLVKPSGTLSLTCAVSGGSISSSNWWSWVRQPPGKGLEWIGEIYHSGSTNYNPSLKSRVTISVDKSKNQFSLKLSSVTAADTAVYYCARDTKYWGGMDVWGQGTTVTVSS
VL: DIQMTQSPSSLSASVGDRVTITCQASQDISNYLNWYQQKPGKAPKLLIYDASNLATGVPSRFSGSGSGTDFTFTISSLQPEDIATYYCQQYVEAPTFGGGTKVEIK
B2: MOR044746 (antibody, V domains shown)
VH: QVQLQQSGPGLVKPSQTLSLTCAISGDSVSSSSAAWNWIRQSPSRGLEWLGHIGYRSKWYNEYAVSVKSRITINPDTSKNQFSLQLNSVTPEDTAVYYCARGMYGSVPYKEGYYFDIWGQGTLVTVSS
VL: DIQMTQSPSSLSASVGDRVTITCRASQGISSDLNWYQQKPGKAPKLLIYAASNLQSGVPSRFSGSGSGTDFTLTISSLQPEDFATYYCQQYTDESMTFGQGTKVEIK
notes: benchmark anti-TREM2 antibody from WO2020079580
B3: EOS006165 (antibody, V domains shown)
VH: QVQLVQSGAEVKKPGSSVKVSCKASGGTFSSYAISWVRQAPGQGLEWMGGIIPISGTANYAQKFQGRVTITADESTSTAYMELSSLRSEDTAVYYCARTQEYTAFDIWGQGTMVTVSS
VL: EIVLTQSPATLSLSPGERATLSCRASQSVSSYLAWFQQKPGQAPRLLIYDASNRATGIPARFSGSGSGTDFTLTISSLEPEDFAVYYCQQDYHWPITFGGGTKVEIK
B4: EOS006162 (antibody, V domains shown)
VH: QVQLVQSGAEVKKPGSSVKVSCKASGGTFSSYAISWVRQAPGQGLEWMGGIIPISGTANYAQKFQGRVTITADESTSTAYMELSSLRSEDTAVYYCARTQEYTLFDSWGQGTMVTVSS
VL: EIVLTQSPATLSLSPGERATLSCRASQSVSSYLAWFQQKPGQAPRLLIYDASNRATGIPARFSGSGSGTDFTLTISSLEPEDFAVYYCQQDYHWPITFGGGTKVEIK
B5: EOS006172 (antibody, V domains shown)
VH: QVQLVQSGAEVKKPGSSVKVSCKASGGTFSSYAISWVRQAPGQGLEWMGGIIPISGTANYAQKFQGRVTITADESTSTAYMELSSLRSEDTAVYYCARTQEYTLFDIWGQGTMVTVSS
VL: EIVLTQSPATLSLSPGERATLSCRASQSVSSYLAWFQQKPGQAPRLLIYDASNRATGIPARFSGSGSGTDFTLTISSLEPEDFAVYYCQQDFHWPITFGGGTKVEIK
B6: EOS004283 (antibody, human IgG1, kappa, V domains shown)
VH: QVQLVQSGAEVKKPGSSVKVSCKASGGTFAQYAISWVRQAPGQGLEWMGVIIPDSGTANYAQKFQGRVTITADESTSTAYMELSSLRSEDTAVYYCARTQENTIFDIWGQGTLVTVSS
VL: EIVLTQSPATLSLSPGERATLSCRASQSVSSYLAWFQQKPGQAPRLLIYDASNRATGIPARFSGSGSGTDFTLTISSLEPEDFAVYYCQQDYEWPITFGGGTKVEIKR

Columns and labels:
cynomolgus TREM2 [1] = molecular target: T1, cynomolgus TREM2; assay: MFI on CHO cells over-expressing cynoTREM2-DAP12
Description: (§1) Cross-reactivity of anti-TREM2 antibodies to cynomolgus TREM2 (cynoTREM2) was assessed using CHO over-expressing cynoTREM2-DAP12 (Table 22). Benchmark antibodies, AB52 and PN-37012, were examined for comparison.

human TREM2 [2] = molecular target: T2, human TREM2; assay: flow cytometry, THP-1 WT cells, 10 ug/ml
Description: (§2) In order to test specificity of selected antibodies to TREM2, binding was tested by flow cytometry on THP-1 TREM2 KO (clone, produced using CRISPR technology in house) and on THP-1 WT. Cells were incubated with selected anti-TREM2 antibodies (final concentration of 10 μg/ml) for 30 min at 4° C. After washing, bound antibodies were detected with a secondary anti-human IgG Fc PE-labelled for 30 min at 4° C. Fluorescence intensity was measured by flow cytometry.

human TREM2 [3] = molecular target: T2, human TREM2; assay: flow cytometry, competition with LDL-Alexafluor-488 on CHO cells overexpressing human TREM2/DAP12; only 1 value generated
Description: (§3) Exemplary anti-TREM2 antibodies were tested in order to characterize their ability to enter in competition with TREM2 ligand, LDL, on CHO overexpressing human TREM2/DAP12. Antibodies (dose response curves from 66.65 nM to 0.07 nM) were incubated for 30 min with cells in a soluble fashion, followed by an incubation with LDL coupled with Alexafluor-488 (at 1 μg/mL final) for 30 min. Finally, after 2 washes, cells were acquired on flow cytometer. The median MFI of Alexafluor-488 was used to plot the graphs. Benchmark antibody MOR044746 was used as positive control.

human TREM2 [4] = molecular target: T2, human TREM2; assay: flow cytometry, THP-1 WT vs THP-1 TREM2 KO cells, 10 ug/ml
Description: as §2

mouse TREM2 [5] = molecular target: T3, mouse TREM2; assay: MFI on CT26 cells over-expressing mouse TREM2 and DAP12 vs CT26 empty vector
Description: (§4) Cross-reactivity to mouse TREM2 was assessed using CT26 cells over-expressing mouse TREM2 and DAP12 (Table 23). Eight anti-TREM2 antibodies and both benchmark antibodies were considered cross-reactive to mouse TREM2 (MFI higher than isotype control and fold change of CT26-TREM2 over the CT26 Empty Vector higher than 5). The remaining anti-TREM2 antibodies were considered as being low to not cross-reactive (fold change less than 5). EOS006171 was not tested due to clear non-cross-reactivity preliminary data by octet (data not shown).

human TREM2 [6] = molecular target: T2, human TREM2; assay: cell-based or functional assay
cynomolgus TREM2 [7] = molecular target: T1, cynomolgus TREM2; assay: MFI on CHO cells over-expressing cynoTREM2-DAP12 vs CHO empty vector
Description: as §1

human TREM2 [8] = molecular target: T2, human TREM2; assay: flow cytometry, M2a-like macrophages, dose-response
Description: (§5) M2a-like macrophages were produced in vitro from monocytes of healthy donors. Briefly, after PBMCs isolation from peripheral blood using Lymphoprep™ gradient, CD14+ cells were purified and seeded in presence of MCSF 50 ng/ml for 6 days. Macrophages were then cultured with IL-13 and IL-4 at a concentration of 20 ng/ml for two additional days and then used for a cell-based binding assay.
(§6) M2a-like macrophages were incubated with anti-TREM2 antibodies (dose-response curve with 11 concentrations from 10 μg/ml to 0.0001 μg/ml) for 30 min at 4° C. After washing, bound antibodies were detected with a secondary anti-human IgG Fc PE-labelled for 30 min at 4° C. Fluorescence intensity was measured by flow cytometry. Equilibrium dissociation constant (kD) was then calculated for each antibody using median MFI normalized over isotype control.

mouse TREM2 [9] = molecular target: T3, mouse TREM2; assay: MFI on CT26 cells over-expressing mouse TREM2 and DAP12
Description: as §4

human TREM2 [10] = molecular target: T2, human TREM2; assay: flow cytometry, M2a-like macrophages
Description: as §5, §6

human TREM2 [11] = molecular target: T2, human TREM2; assay: cell-based or functional assay; remark: listed apart in the source
human TREM2 [12] = molecular target: T2, human TREM2; assay: flow cytometry, competition with LDL-Alexafluor-488 on CHO cells overexpressing human TREM2/DAP12; positive control
Description: as §3

mouse TREM2 [13] = molecular target: T3, mouse TREM2; assay: MFI on CT26 cells over-expressing mouse TREM2 and DAP12; column 'Considered cross-reactive'
Description: as §4

human TREM2 [14] = molecular target: T2, human TREM2; assay: flow cytometry, competition with LDL-Alexafluor-488 on CHO cells overexpressing human TREM2/DAP12
Description: as §3

Binder | Binding to CHO-cTREM2 MFI (cynomolgus TREM2 [1]) [MFI] | Fold over isotype control THP1 WT (human TREM2 [2]) [fold] | IC50 (human TREM2 [3]) [pM] | MFI Fold change (THP-1 WT over THP-1 TREM2 KO) (human TREM2 [4]) [fold] | MFI Fold change (CT26-TREM2 over CT26-EV) (mouse TREM2 [5]) [fold] | Fold over isotype control at 66 nM (human TREM2 [6]) [fold] | MFI Fold change (CHO-cTREM2 over CHO-EV) (cynomolgus TREM2 [7]) [fold] | Kd (human TREM2 [8]) [pM] | Binding to CT26-TREM2 MFI (mouse TREM2 [9]) [MFI] | Fold over isotype (human TREM2 [10]) [fold] | Stabilization ratio (Mean of 2 replicates) (human TREM2 [11]) [ratio] | IC50 (human TREM2 [12]) [pM] | binding result (mouse TREM2 [13]) | IC50 (human TREM2 [14]) [pM]
B1 | 10200 | 5.5 | 280 | 5.8 | 3.9 | 0.757 | 233 | 1060 | 1390 | 5.8 | 0.39 | – | – | –
B2 | – | – | – | – | – | – | – | – | – | – | – | 395 | – | –
B3 | 8500 | 1.7 | – | 2.5 | 2.3 | 1.03 | 189 | 410 | 649 | 2.2 | 0.54 | – | no binding (tested: fold change less than 5) | 5290
B4 | 17100 | 9.9 | – | 11 | 6.4 | 0.785 | 393 | 130 | 2000 | 10.8 | 0.4 | – | no binding | 116
B5 | 17200 | 8.7 | – | 8.9 | 4.9 | 0.59 | 418 | 90 | 1660 | 9.8 | 0.46 | – | no binding (tested: fold change less than 5) | 115
B6 | – | – | 138 | – | – | 0.267 | – | – | – | – | – | – | – | –
